Measurements: US9623039B2, “Treatment and prevention of pathological conditions using iduna related techniques and compositions” (VALTED, LLC, priority 2010, dated 2017)

How the values were obtained:
MCF7 cells [1] = assay: MNNG cell death assay in stable MCF7 cell lines; type: cell-based, human; conditions: MNNG 500 μM 15 min, 24 hr
Experimental: Cell death assay. GFP, GFP-Iduna, GFP-Iduna C60A, GFP-Iduna YRAA, shRNA-Iduna and shRNA-Iduna/GFP-Iduna stably transfected cells were treated with 500 μM MNNG for 15 min, and replaced with fresh growth media. After 24 h, the cells were stained with […] Hoechst 33342 (Invitrogen) and […] propidium iodide (PI) (Invitrogen) and counted by automated computer-assisted program (Carl Zeiss). The percentage of cell death was determined as the ratio of live to dead cells compared with the percentage of cell death in control.

MCF7 cells [2] = assay: Cell cycle analysis after γ-irradiation; type: cell-based, human; conditions: γ-irradiation 2 Gy
Experimental: Cell cycle analysis. Studies were performed to evaluate the cell cycle response of each stable cell lines. Cells were plated onto 150 mm culture dishes and cultured for 24 h at 37° C. with fresh growth medium. Following replacement of growth medium, cells were irradiated at 2 Gy with a Gammacell irradiator. After 12 h, cells were washed once with PBS and incubated with PBS containing 0.2% EDTA for 5 min at 37° C., thereafter scraped with fresh growth medium and collected at 500×g at 4° C. Collected cells were washed once with ice cold PBS and then fixed with 70% ethanol. Cells were washed once with PBS containing 1% FBS and resuspended into propidium iodide (PI) staining buffer (PBS, pH 7.4, 50 μg/ml PI, 1% FBS, 100 μg/ml RNase) for 30 min at 37° C. Cells were monitored for DNA content by a flow cytometry (BD Biosciences) and then data were analyzed with FlowJo using Dean-Jett-Fox model for the quantification of each cell cycle phase.

MCF7 cells [3] = assay: Determination of apurinic/apyrimidinic (AP) sites; type: cell-based, human; conditions: 1 h
Experimental: Determination of apurinic/apyrimidinic (AP) sites. The amount of AP sites in genomic DNA was monitored by a DNA damage quantification kit (BioVision). Briefly, cells were treated with either DMSO or 500 μM MNNG for 15 min, and then replaced with normal growth media. After 1 h, cells were scraped and harvested at 500×g for 5 min and washed once with PBS. Genomic DNA was isolated using a Biovision Genomic DNA Isolation Kit (BioVision) and then AP sites on the 0.5 μg of genomic DNA was labeled with biotin by the Aldehyde Reactive Probe (ARP) reagent (supplied with the DNA damage quantification kit) for 1 h at 37° C. To precipitate the biotin-tagged DNA, sample was mixed with TE buffer containing 2% glycogen and then sequentially incubated with ice cold 70% ethanol for 30 min at −20° C. […] To determine of the number of AP sites in DNA, samples were dissolved in TE buffer and then transferred into 96 well plate with DNA binding buffer (supplied with the DNA damage quantification kit). After 12 h, samples were washed five times with DNA washing buffer (supplied with the DNA damage quantification kit) and then biotin labeled AP sites were quantified using an avidin-biotin assay. Each sample and standards (supplied with a DNA damage quantification kit) were run in triplicate and the OD was measured at 650 nm using a 96-well plate reader (SpectraMax Plus384 Microplate Reader).

MCF7 cells [4] = assay: Alkaline comet assay after γ-irradiation; type: cell-based, human; conditions: γ-irradiation 2 Gy, 15 min
Experimental: Comet assay. Single cell gel electrophoresis assay was performed by following the manufacturer's instructions. Briefly, established stable cell lines were irradiated (2 Gy) with a Gammacell irradiator and then further incubated for 15 min at 37° C. Cells were collected at 500×g at 4° C. and rinsed twice with ice cold PBS (Ca++ and Mg++ free). A total of 5×10^5 cells were counted and resuspended into PBS (Ca++ and Mg++ free) and then combined with LMAgarose (low melting agarose) at a ratio 1:10 (v/v). Each sample was spotted into CometSlide™ and lysed with buffer (supplied with CometAssay Kit, Trevigen) for 1 h at 4° C. After draining the excess lysis buffer, slides were immersed with alkaline unwinding solution (200 mM NaOH, pH>13, 1 mM EDTA) for 1 h at RT. To the single cell electrophoresis, each comet slide was placed in electrophoresis slide tray with 1 L of alkaline unwinding solution and applied to 21 Volts for 30 min for electrophoresis. After draining the excess electrophoresis buffer, slides were rinsed twice with dH2O and then fixed with 70% ethanol for 5 min. To facilitate single cell observation, slides were dried at 40° C. and stained with SYBR Green I (supplied with CometAssay Kit) for 5 min at 4° C. […] Fifty cells per slide were monitored and the DNA damage was calculated using comet tail length and head diameter parameters.

PAR polymer = PAR polymer overlay / dot blot (far western); type: binding; conditions: PAR polymer overlay assay
Excerpt: PAR binding is specified by a sequence of approximately 20 amino acids containing N-terminal basic amino acids and a C-terminal region containing alternating hydrophobic and basic amino acids (FIG. 24). Iduna contains a predicted PAR polymer binding sequence within amino acids 144-167 of the WWE domain (FIGS. 1 and 24). The PAR-binding domain was defined by comparing to the consensus sequence for PAR-binding and the known PAR binding domain of Histone 3 (FIG. 24). HEK293 cells were transfected with GFP, GFP-Iduna lacking the WWE domain (GFP-IdunaΔWWE), GFP-Iduna lacking the RF domain (GFP-IdunaARF), and full-length GFP-Iduna, followed by immunoprecipitation with a GFP antibody. […] Only GFP-Iduna-ARF and full-length GFP-Iduna can co-immunoprecipiate PAR binding proteins (FIG. 25). The critical amino acids in the PAR binding domain, 156Y and 157R, were mutated to 156A and 157A in full length Iduna (Iduna-YRAA). […] Similar results are obtained with a biotin-tagged PAR polymer followed by detection with an anti-biotin antibody (FIG. 26). […] Histone H3 is a known PAR binding protein and was used as a positive control for the PAR overlay assay. […] An assay based on electrophorectic mobility shift (EMSA) for PAR binding was developed to monitor PAR polymer binding to Iduna. […]

PARsylated PARP1 = assay: PARG activity on PARsylated PARP1; type: biochemical
Experimental: FIG. 85—PARG activity was measured by incubation with PARsylated PARP1 as indicated. The level of PARsylated PARP1 (Rb-PARP1) was monitored by immunoblot with anti-PAR antibody. There is a slight difference in the sensitivity of assays used to detect PAR, which accounts for the ability of 1 unit of PARG to eliminate PAR in B, but 1.2 units of PARG is required in A.
As disclosed herein, Iduna contains a consensus PBM is its WWE domain and that mutating the hydrophobic amino acids 155Y and 156R to alanine to create an Iduna YRAA mutant disrupts PAR binding to Iduna. MCF7 cells were transfected with GFP-Iduna, GFP-Iduna C60A and GFP-Iduna YRAA. 48 hours later Iduna was immunoprecipitated with antibodies to GFP followed by immunoblot analysis with antibodies to PAR. Iduna and Iduna C60A bind PAR whereas Iduna YRAA is incapable of binding PAR (FIG. 83). To confirm that Iduna binding to PARP1 is dependent on PARsylation of PARP1, binding of automodified PARP1 with ^32P-NAD was monitored in a GST pull down experiment with Histone H3 as a positive control (FIGS. 84 and 85). […] Iduna and Iduna-C60A bind to a range of PAR polymers of varying length similar to H3, whereas Iduna-YRAA fails to bind to PAR, as determined by phosphorimager detection of radiolabeled PAR polymer bound to Iduna, Iduna-C60A and H3 after separation by Tris-borate-EDTA PAGE (FIG. 87).

B1: Iduna C60A: Iduna RING finger point mutant lacking E3 ligase activity (protein, UniProt Q9NTX7 1-359, looked up, variant C60A)
E3 ubiquitin-protein ligase …: MMAGCGEIDHSINMLPTNRKANESCSNTAPSLTVPECAICLQTCVHPVSLPCKHVFCYLAVKGASWLGKRCALCRQEIPEDFLDKPTLLSPEELKAASRGNGEYAWYYEGRNGWWQYDERTSRELEDAFSKGKKNTEMLIAGFLYVADLENMVQYRRNEHGRRRKIKRDIIDIPKKGVAGLRLDCDANTVNLARESSADGADSVSAQSGASVQPLVSSVRPLTSVDGQLTSPATPSPDASTSLEDSFAHLQLSGDNTAERSHRGEGEEDHESPSSGRVPAPDTSIEETESDASSDSEDVSAVVAQHSLTQQRLLVSNANQTVPDRSDRSGTDRSVAGGGTVSVSVRSRRPDGQCTVTEV
modifications: GFP tag
- MNNG-induced cell death (MCF7 cells [1]): not protective
- cell cycle arrest and cell survival (MCF7 cells [2]): not protective
- increase in AP sites after MNNG (MCF7 cells [3]): fails to reduce the number of AP sites
- comet head diameter and tail length (MCF7 cells [4]): does not prevent the reduction in head diameter and increase in tail length

B2: GST-Iduna: full length recombinant GST-Iduna fusion protein (protein)
chain: MEMAGCGEIDHSINMLPTNKKANESCSNTAPSLTVPECAICLQTCVHPVSLPCKHVFCYLCVKGASWLGKRCALCRQEIPEDFLDKPTLLSPEELKAASRGNGEYAWYYEGRNGWWQYDERTSRELEDAFSKGKKNTEMLIAGFLYVADLENMVQYRRNEHGRRRKIKRDIIDIPKKGVAGLRLDCDTNTVNLARESSADGADSGSAQTGASVQLAVPSSTRPLTSVDGQLTSPVTPSPDAGISLEDSFAHLQLSGDSIAERSHRGEGEEDHESPSSGRVPDTSVEETESDASSDSEDAPVVVAQHSLTQQRPLVPNGNQTVADQSDRSGTDRSVAGGGTMSVNVRSRRPDGQCTVIEV
modifications: left off: a dimerising Fc or GST
notes: full length recombinant GST-Iduna fusion protein
- PAR polymer binding (PAR polymer): binds to PAR polymer

B3: PARG: PAR glycohydrolase, which degrades PAR (protein, UniProt Q86W56 1-976, looked up)
Poly(ADP-ribose) …: MNAGPGCEPCTKRPRWGAATTSPAASDARSFPSRQRRVLDPKDAHVQFRVPPSSPACVPGRAGQHRGSATSLVFKQKTITSWMDTKGIKTAESESLDSKENNNTRIESMMSSVQKDNFYQHNVEKLENVSQLSLDKSPTEKSTQYLNQHQTAAMCKWQNEGKHTEQLLESEPQTVTLVPEQFSNANIDRSPQNDDHSDTDSEENRDNQQFLTTVKLANAKQTTEDEQAREAKSHQKCSKSCDPGEDCASCQQDEIDVVPESPLSDVGSEDVGTGPKNDNKLTRQESCLGNSPPFEKESEPESPMDVDNSKNSCQDSEADEETSPGFDEQEDGSSSQTANKPSRFQARDADIEFRKRYSTKGGEVRLHFQFEGGESRTGMNDLNAKLPGNISSLNVECRNSKQHGKKDSKITDHFMRLPKAEDRRKEQWETKHQRTERKIPKYVPPHLSPDKKWLGTPIEEMRRMPRCGIRLPLLRPSANHTVTIRVDLLRAGEVPKPFPTHYKDLWDNKHVKMPCSEQNLYPVEDENGERTAGSRWELIQTALLNKFTRPQNLKDAILKYNVAYSKKWDFTALIDFWDKVLEEAEAQHLYQSILPDMVKIALCLPNICTQPIPLLKQKMNHSITMSQEQIASLLANAFFCTFPRRNAKMKSEYSSYPDINFNRLFEGRSSRKPEKLKTLFCYFRRVTEKKPTGLVTFTRQSLEDFPEWERCEKPLTRLHVTYEGTIEENGQGMLQVDFANRFVGGGVTSAGLVQEEIRFLINPELIISRLFTEVLDHNECLIITGTEQYSEYTGYAETYRWSRSHEDGSERDDWQRRCTEIVAIDALHFRRYLDQFVPEKMRRELNKAYCGFLRPGVSSENLSAVATGNWGCGAFGGDARLKALIQILAAAAAERDVVYFTFGDSELMRDIYSMHIFLTERKLTVGDVYKLLLRYYNEECRNCSTPGPDIKLYPFIYHAVESCAETADHSGQRTGT
- removal of PAR from PARsylated PARP1 (PARsylated PARP1): dose dependently removes PAR from PARsylated PARP1
